Earlier results as cited in publication PMC9792189.
pKd: −log10 of the molar value.

Biological target: SARS-CoV-2 S1/RBD (target in cited aptamer papers) (SARS-CoV-2) (UniProt P0DTC2)
Test: SPR

Sequence	pKd
AAAGCCACAACGAGCTCGGGTGAAAGCAGTCCGTTGAGTAGGCTTGCGGCTGCGTGGCATATCGATT [SSapt1]	6.98
ACGGGTTTGGCGTCGGGCCTGGCGGGGGGATAGTGCGGT [MSA5T]	8.00
ATTACCGATGGCTTGTTTGTAATGTAGGGTTCCGTCGGAT [Aptamer-2]	7.57
CAGCACCGACCTTGTGCTTTGGGAGTGCTGGTCCAAGGGCGTTAATGGACA [CoV2-RBD-1C]	8.51
GGGGTGGGGTAGTGGTATGGAGCG [XN-268s]	8.37
TCGAGTGGCTTGTTTGTAATGTAGGGTTCCGGTCGTGGGT [Aptamer-1]	7.55
TTCCGGTTAATTTATGCTCTACCCGTCCACCTACCGGAA [MSA1T]	8.55
TTCCGGTTAATTTATGCTCTACCCGTCCACCTACCGGAATTTTTTTTTTTTTTTTTTTTTTTTTTTTTTACGGGTTTGGCGTCGGGCCTGGCGGGGGGATAGTGCGGT [DSA1N5]	9.29
